According to publication doi:10.1101/2022.09.03.506465 (bioRxiv, 2022):

T1: TSEN54, subunit of full-length, catalytically inactive human TSEN (human, UniProt Q7Z6J9 1-526)
T1 sequence (looked up): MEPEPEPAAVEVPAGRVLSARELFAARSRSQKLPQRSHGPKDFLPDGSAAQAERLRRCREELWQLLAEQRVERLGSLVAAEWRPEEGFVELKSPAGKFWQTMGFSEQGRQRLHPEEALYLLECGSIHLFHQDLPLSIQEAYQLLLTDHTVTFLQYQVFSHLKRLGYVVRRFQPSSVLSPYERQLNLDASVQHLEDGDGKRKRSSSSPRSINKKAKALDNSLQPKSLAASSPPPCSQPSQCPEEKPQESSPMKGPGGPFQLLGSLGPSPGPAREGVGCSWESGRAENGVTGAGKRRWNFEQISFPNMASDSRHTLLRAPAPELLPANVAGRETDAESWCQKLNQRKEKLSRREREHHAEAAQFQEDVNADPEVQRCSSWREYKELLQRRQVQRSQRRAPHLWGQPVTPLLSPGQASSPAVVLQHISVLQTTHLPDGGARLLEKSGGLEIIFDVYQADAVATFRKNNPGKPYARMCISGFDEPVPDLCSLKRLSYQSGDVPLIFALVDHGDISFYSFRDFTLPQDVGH

B1: TSEN15, subunit of full-length, catalytically inactive human TSEN (natural protein, UniProt Q8WW01 1-171, looked up)
chain: MEERGDSEPTPGCSGLGPGGVRGFGDGGGAPSWAPEDAWMGTHPKYLEMMELDIGDATQVYVAFLVYLDLMESKSWHEVNCVGLPELQLICLVGTEIEGEGLQTVVPTPITASLSHNRIREILKASRKLQGDPDLPMSFTLAIVESDSTIVYYKLTDGFMLPDPQNISLRR
B2: TSEN2^H377F, subunit of full-length, catalytically inactive human TSEN (natural protein, UniProt Q8NCE0 1-465, looked up)
chain: MAEAVFHAPKRKRRVYETYESPLPIPFGQDHGPLKEFKIFRAEMINNNVIVRNAEDIEQLYGKGYFGKGILSRSRPSFTISDPKLVAKWKDMKTNMPIITSKRYQHSVEWAAELMRRQGQDESTVRRILKDYTKPLEHPPVKRNEEAQVHDKLNSGMVSNMEGTAGGERPSVVNGDSGKSGGVGDPREPLGCLQEGSGCHPTTESFEKSVREDASPLPHVCCCKQDALILQRGLHHEDGSQHIGLLHPGDRGPDHEYVLVEEAECAMSEREAAPNEELVQRNRLICRRNPYRIFEYLQLSLEEAFFLVYALGCLSIYYEKEPLTIVKLWKAFTVVQPTFRTTYMAYHYFRSKGWVPKVGLKYGTDLLLYRKGPPFYFASYSVIIELVDDHFEGSLRRPLSWKSLAALSRVSVNVSKELMLCYLIKPSTMTDKEMESPECMKRIKVQEVILSRWVSSRERSDQDDL
B3: TSEN34^H255F, subunit of full-length, catalytically inactive human TSEN (natural protein, UniProt Q9BSV6 1-310, looked up)
chain: MLVVEVANGRSLVWGAEAVQALRERLGVGGRTVGALPRGPRQNSRLGLPLLLMPEEARLLAEIGAVTLVSAPRPDSRHHSLALTSFKRQQEESFQEQSALAAEARETRRQELLEKITEGQAAKKQKLEQASGASSSQEAGSSQAAKEDETSDGQASGEQEEAGPSSSQAGPSNGVAPLPRSALLVQLATARPRPVKARPLDWRVQSKDWPHAGRPAHELRYSIYRDLWERGFFLSAAGKFGGDFLVYPGDPLRFFAHYIAQCWAPEDTIPLQDLVAAGRLGTSVRKTLLLCSPQPDGKVVYTSLQWASLQ

How the values were obtained:
[1] = target: B3; assay: cryo-EM structure
[2] = target: T1, TSEN54, subunit of full-length, …; assay: cryo-EM structure

**Q.** Does B1 bind [1]?
**A.** Result: binds

**Q.** Does B2 bind [2]?
**A.** Result: binds

**Q.** Does B3 bind [2]?
**A.** Result: binds
